This data set concerns the molecule itself. Put plainly: mass photometry.

Several values for one entry are separate records, joined by “and”; a condition that tells them apart may be missing. Equal values may be shown once.

B1: Heterogeneous nuclear ribonucleoprotein A2/B1 (hnRNPA2B1), full length, tag-free (natural protein, human, UniProt P22626 1-353, looked up)
chain: MEKTLETVPLERKKREKEQFRKLFIGGLSFETTEESLRNYYEQWGKLTDCVVMRDPASKRSRGFGFVTFSSMAEVDAAMAARPHSIDGRVVEPKRAVAREESGKPGAHVTVKKLFVGGIKEDTEEHHLRDYFEEYGKIDTIEIITDRQSGKKRGFGFVTFDDHDPVDKIVLQKYHTINGHNAEVRKALSRQEMQEVQSSRSGRGGNFGFGDSRGGGGNFGPGPGSNFRGGSDGYGSGRGFGDGYNGYGGGPGGGNFGGSPGYGGGRGGYGGGGPGYGNQGGGYGGGYDNYGGGNYGSGNYNDFGNYNQQPSNYGPMKSGNFGGSRNMGGPYGGGNYGPGGSGGSGGYGGRSRY
For orientation: stoichiometry N means the number of molecules, sites or subunits per partner or assembly. On to B1, for which the “stoichiometry N” value was 2 and 4.

(Values after doi:10.1101/2025.07.10.664112 (bioRxiv, 2025).)
